Test results: EP4814010A1 (Shanghai Huaota Biopharmaceutical Co., Ltd., dated 2026)

What was measured:
[1] = molecular target: T1, Trypsin inhibitor type 1-S from Glycine max (Glycine max, UniProt P01070 25-205); test: SPR (Biacore 8K), trypsin inhibitor amine-coupled on CM5, antibody as analyte
T1 sequence (looked up): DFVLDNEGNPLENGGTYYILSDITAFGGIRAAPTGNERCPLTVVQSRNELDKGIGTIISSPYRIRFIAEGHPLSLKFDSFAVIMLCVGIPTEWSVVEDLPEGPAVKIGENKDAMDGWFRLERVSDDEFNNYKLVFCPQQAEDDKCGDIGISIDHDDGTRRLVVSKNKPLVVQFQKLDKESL

[2] = molecular target: T2, Human IL-11, No Tag (Sino Biological, 12225-HNCE) (human, UniProt P20809 22-199); test: SPR (Biacore T200), antibody captured on Protein A chip, IL-11 as analyte, 1:1 model
T2 construct: Bought protein; also called IL-11 Protein, Human, Recombinant
T2 sequence (looked up): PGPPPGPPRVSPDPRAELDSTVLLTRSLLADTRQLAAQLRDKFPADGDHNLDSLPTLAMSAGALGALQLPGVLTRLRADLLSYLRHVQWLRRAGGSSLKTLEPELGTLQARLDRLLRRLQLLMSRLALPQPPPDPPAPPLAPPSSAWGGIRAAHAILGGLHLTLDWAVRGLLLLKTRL

[3] = molecular target: T3, Mouse IL-11, No Tag (Sino Biological, 50117-MNCE) (mouse, UniProt P47873 22-199); test: as above
T3 construct: Bought protein
T3 sequence (looked up): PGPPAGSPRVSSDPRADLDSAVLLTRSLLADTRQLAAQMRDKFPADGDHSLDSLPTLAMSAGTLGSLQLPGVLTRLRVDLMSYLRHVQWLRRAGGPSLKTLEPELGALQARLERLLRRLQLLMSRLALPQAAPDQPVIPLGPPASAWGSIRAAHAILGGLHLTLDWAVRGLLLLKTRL

[4] = molecular target: T4, Recombinant Rat Interleukin-11(IL-11), hFc Tag (CusaBio, CSB-MP859561RAd9) (rat, UniProt Q99MF5 22-199); test: BLI (Octet RH96), biotinylated sample on SA sensor, rat IL-11 as analyte, 1:1 global fit
T4 construct: Bought fusion protein; also called Rat IL-11; not shown: hFc tag
T4 sequence (looked up): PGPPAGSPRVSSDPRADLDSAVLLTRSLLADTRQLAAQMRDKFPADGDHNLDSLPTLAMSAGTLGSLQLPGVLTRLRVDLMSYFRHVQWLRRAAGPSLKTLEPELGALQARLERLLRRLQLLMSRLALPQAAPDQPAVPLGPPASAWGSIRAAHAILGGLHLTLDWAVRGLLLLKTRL

[5] = molecular target: T5, Cynomolgus IL-11, No Tag (Sino Biological Inc., 90925-CNCE) (cynomolgus, UniProt P20808 22-199); test: SPR (Biacore 8K), cynomolgus IL-11 amine-coupled on CM5, single-cycle kinetics, 1:1 model
T5 construct: Bought protein; also called monkey IL-11
T5 sequence (looked up): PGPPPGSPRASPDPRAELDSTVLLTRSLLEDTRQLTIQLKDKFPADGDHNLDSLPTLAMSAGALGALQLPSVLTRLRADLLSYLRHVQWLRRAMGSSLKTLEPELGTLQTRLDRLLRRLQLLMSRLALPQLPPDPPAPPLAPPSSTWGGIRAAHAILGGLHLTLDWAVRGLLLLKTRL

B1: anti-IL-11 monoclonal heavy chain antibody 700068 (antibody, V domains shown)
VH: QVQLVESGGGLVQPGGSLRLSCAASGSIASIYTMAWYRQAPGKQRELVALSTNRGATDYADFVKGRFTISRDNAENTMYLQMNSLKPEDTAVYYCNGVASSWSTGFVASWGQGTQVTVSS
notes: also called 700068 heavy chain antibody
- binding result [1]: no binding
- Kd [2]: 1.93 nM
- koff [2]: 0.00133 s⁻¹
- kon [2]: 689000 M⁻¹ s⁻¹
- Kd [3]: 2.2 nM
- koff [3]: 0.00107 s⁻¹
- kon [3]: 487000 M⁻¹ s⁻¹
- Kd [4]: 1.17 nM
- koff [4]: 5.57e-05 s⁻¹
- kon [4]: 47500 M⁻¹ s⁻¹
- Kd [5]: 4.56 nM
- koff [5]: 0.00221 s⁻¹
- kon [5]: 485000 M⁻¹ s⁻¹
